Data set [1] deals with the molecule itself. The experiment in a line: crystal structure; Aer2 1–172 mutant proteins; L44H by vapor diffusion, 1.5–1.7 M MgSO4, 0.1 M Tris pH 8.5, room temperature, space group P3(2)12; V33G in conditions and space group of the WT; molecular replacement.
Data set [2] concerns the molecule itself. The data set can be described thus: pulsed dipolar ESR spectroscopy (PDS, double electron electron resonance); inter-subunit distances between MTSSL spin labels on one engineered Cys per subunit; 17.35 GHz; protein 25–50 µM.

We go through four proteins from publication PMC3570549, “HAMP Domain Conformers That Propagate Opposite Signals in Bacterial Chemoreceptors” (PLoS Biology, 2013).

Where a chain is given by its changes, count along the chain named. Numbers in names are those of the source.

B1: Aer2 1–172 L44H (domain or fragment)
chain: MGLFNAHAVAQQRADRIATLLQSFADGQLDTAVGEAPAPGYERHYDSLRALQRQLREQRAELQQVESLEAGLAEMSRQHEAGWIDQTIPAERLEGRAARIAKGVNELVAAHIAVKMKVVSVVTAYGQGNFEPLMDRLPGKKAQITEAIDGVRERLRGAAEATSAQLATAAYN
notes: Aer2, soluble receptor of Pseudomonas aeruginosa, residues 1-172 (HAMP1, HAMP2, HAMP3); also called L44H HAMP1 mutant; source: purified as previously described for the WT protein [7], induction temperature reduced to 18°C
As for B1, the binding result in data set [1] is reported as “binds”.

B2: H1C AS1 (Aer2 1–172 D26C, MTSSL spin-labeled) (domain or fragment)
chain: B1 chain with D26C, H44L
modifications: MTSSL spin label on the engineered Cys at 26
notes: Aer2, soluble receptor of Pseudomonas aeruginosa, residues 1-172; source: Aer2 1–172 mutant proteins purified as previously described for the WT protein [7]; spin-labeled with MTSSL
Take B2: the binding result in data set [2] is listed as “binds”.

B3: Aer2 1–172 V33G (domain or fragment)
chain: B1 chain with V33G, H44L
notes: Aer2, soluble receptor of Pseudomonas aeruginosa, residues 1-172 (HAMP1, HAMP2, HAMP3); also called HR2 mutant of HAMP1; source: purified as previously described for the WT protein [7], induction temperature reduced to 18°C
Take B3: the binding result in data set [1] is “binds”.

B4: H2C AS1 (Aer2 1–172 A81C, MTSSL spin-labeled) (domain or fragment)
chain: B1 chain with H44L, A81C
modifications: MTSSL spin label on the engineered Cys at 81
notes: as for B2
As for B4, the binding result in data set [2] is reported as “binds”.
